Experiment: soluble on expression in E. coli; label from the status in PepcDB or PDB records

Sequence | soluble on expression in E. coli
MGSDKIHHHHHHMKVTNYQGATIDPYSKGLGMVPGTSIQLTDAARLEWNLLNEDVSLPAAVLYADRVEHNLKWMQAFVAEYGVKLAPHGKTTMAPQLFRRQLETGAWGITLATAHQVRAAYHGGVSRVLMANQLVGRRNMMMVAELLSDPEFEFFCLVDSVEGVEQLGEFFKSVNKQLQVLLELGVPGGRTGVRDAAQRNAVLEAITRYPDTLKLAGVELYEGVLKEEHEVREFLQSAVAVTRELVEQERFARAPAVLSGAGSAWYDVVAEEFVKASETGKVEVVLRPGCYLTHDVGIYRKAQTDIFARNPVAKKMGEGLLPALQLWAYVQSIPEPDRAIIGLGKRDSAFDAGMPEPARHYRPGNEAPRDIAASEGWEIFGLMDQHAYLRIPAGADLKVGDMIAFDISHPCLTFDKWRQVLVVDPAYRVTEVIETFF | not soluble
MGSDKIHHHHHHMQKLLSVIPSVDKLIKQLAGIALIQQYGHQAFVAQARQVIDSLRQHILTHQSLPVDQPADNLLSLIATNLQQTQQIAMKKVFNLTGTILHTNLGRAIWSEAAITAASDAMRHHSALEFDIEAGKRSHRDNTISQLLCEITGAEAACVVNNNAAAVLLMLATFAKGKEVIVSRGELVEIGGAFRIPDIMQQAGCKLVEVGTTNRTHLKDYRAAINENTALLMKVHTSNYQIQGFTHSVSEQQLVELGQEVGLPVMSDLGSGSLIDMATFGLPAEPLVQQKVASGVALVTFSADKLLGGPQAGIIVGKKADIEALQAHPLKRVLRCDKVILAGLEATLRHYLLPDQLTTHLPTLSLLTQSIDHLRVKATRLQNSLSKRLDARYHLQIEQSLAQIGSGALPTERLASLAVTITAPTQRDLLQLEQQFKMLKYPIIGRFAEQKLWLDLRSVAQFDQLIEMLEEK | not soluble
MAHHHHHHMLKKFSPLSFMVLQKRYNKSEQKIFDKIKNIINSNKNLRHTDDEKDKIEIINIDNEIINKENISFKCNIINEDSTKNENKKDNIDEMTNVNIYDDYFNINDEYNNVMSNDNDNVDIKSFIRETVDYYKSLQLKKKEDHLNVLNVKKKDYSNIKEYYNKNEEIKEIVQDNNFIWNNKNYDKKNIHSGFHSDIIYYDNYDTTKSKHNQNIQNGQNIQNGQNIQNGQNIQNNQNNQNIQNIQNNQNNQHCHNSTHEKNCGSYNFLTPAQVFFENNKEKLIQESYKYYKERENNINKEDYLYDENEGYYNYANMKTPIIRPNDKEGFLFNYEDDDYNNNDDEGEDDMTLEKGIMPTIEQIVCILKHEKVKDIKVIDLDKCGRRDIGMFLILCTGNTAKHNKKVGKLISKIFIDLEIPYISNVVYCYCNKFDDWIITHCGPLKINIVTKELRNLYDIENLFLYPHEHFDSTNFPSFFDYTPGIPPPYLVRSNASMDSYKNDDIYTKFLTEK | not soluble
SAASEHRCVGCGFRVKSLFIQYSPGNIRLMKCGNCKEVADEYIECERMIIFIDLILHRPKVYRHVLYNAINPATVNIQHLLWKLVFAYLLLDCYRSLLLRKSDEESSFSDSPVLLSIKVRSFLFNGLN | soluble
MGSDKIHHHHHHALICNSAVTTTASTLYSWHQVRNTLAIMFNKRHIERHQLPCVLKVFNRFTGQEIGQLGNASENGLMVISQLPVLVGPDYELQLRMPLPGGGHQFVNLTASCLWCREDQTPGHYDSGFMLLQSPREYDDFVRSLRDYFSFRPANAPV | not soluble
SNAMNVIRLKEDKFREALRLSEYAFQYKVDEDRLQQQITKMKESHEVYGIMEGENLAAKLHLIPFHIYIGKEKFKMGGVAGVATYPEYRRSGYVKELLQHSLQTMKKDGYTVSMLHPFAVSFYRKYGWELCANLLVCHMTKSDLVMKKQVNGTVKRFNKESHPEEVEKLYETFAELFSGMLVRNEKWWLQAVYDDLTLAIYYDENQTAAGYMLYKIENYKMTVEEFVPLHNEARNGLWNFICQHDSMIKDLEMTVSENEPLLYTLQEPRVKTEIKPYFMGRIVDVEQFLKQYELNWNNVQQEVILHITDSFAQWNNITVRIANHEITIIEEPIDKGIKLDINALSTILFGYRRPLELNELELISGSEEEIRAFESVVPVRKPFIYDFF | soluble
MAPTRAVIPDDFELPVDAFDIPICYDGDLSGVVIPEGLVRDRVRRLAKDIHAEIGNKPIALLCVLKGSYKFFTALVEELTNARSSCPEPMTVDFIRVKSYEDQMSTGQIQIMGLSNLDELKGKSVLVVDDISDTGRTLAKLLSTLHETGVEKTWTALLLSKRVKRVVDVPEDFVAFEIPDKFIVGYGLDYNQKFRDLGHICVMSPAGIEKYKSE | not soluble
MHLYYLGPKGTFSYLAAKQFESHEQYDFIPLSNLHEVIQSVSKDKQAVGIVPIENSIEGTINIVADSLAHHDVYAHGEIQLDIDFSLYGHHSNSLDDIHKVYSIAPAISQTINYIHRQQFDYDYVDSTIQSLNMIKDGIGAIAPLGSGETYGYHTLDQHIQDYPHNVTRFLVVKNHTHFIEHPNTTIFLITPKYDKPGLLASVLNTFTLFNINLSWIESRPLKTQLGMYHFYVQADTAINNDVNKIISILETLDFQVKIIGAFNKKN | not soluble
MHLYNLTLQGQSAINQAIQGNFSGTPKAQEIVVGRGSALELLTLDTVTGKIKVMCHQDIFGIVRSLLAFRLTAGTRDFIAVGSDSGRIVILQYNAEKTCFERLHQETFGKTGCRRIVPGHFLVGDPRGRALMIGAVERQKLVYIMNRDSEAHLTISSPLEAHKHHTLCYAMVGIDVGFENPTFACLEFDYEDADNDPTGEAAKRTQQTLTFYELDLGLNHVVRKYAEPLNDPGNLLIAVPGGNDGPSGVIVCCENYLVYKNLGDQPDIRCPIPRRRNELDDADRTMLIIATATHKTKNMYFFLVQAENGDIFKVTLETDEDLVSEMKLKYFDTVPPANALCILKSGFLFVAAEFGNHELYQIASLGEGDDDEFSSAMGFGENDAAFFEPHELKSLIPIDSMDSLSPLTDAVIGDIAREDAAQIYSLVGRGARSSLKVLRNGLEISEMAVSDLPGNPNAVWTVKKNIEDQYDSYIVVSFVNATLALTIGDTVEEASDSGFLPTTPTIGCAMIGDDSLVQIYSEGIRHIRADKRINEWKAPPRRQIVKCAVNRRQVAVALTGGELVYFELDLNGTLNEFTERKLFNADIACMTFSEISEGELNSRFLALGTVDNAVRIISLDPNDMLMPLSTQSLPCPPESILLIDTPNEDGKGVAAVHLNIGLQNGCLFRNTVDNVTGAIMDTRTRYLGTRPVKLFKVQCQGRSAILCTSSRSWLLYHFQRRFHLTPLSYANLEYAASFCSNQCSEGIVAISASTLRIIAAEKLGVAFNVQSFEHKMTPRRVAVHPSMPCLIVIETDHASYTEVTKNIKRNQMAADVEAMASDETEAQLAQEIATNLRERRLDERVYGAPRAARGKWASAISLISATSGDKLSYFELPQDENAKCVALVQFSKHPNEAMVLVGCGVNEVLNVHDIDPNDTSIRPTRGCVYTFHLSANGDRFDFLHRTETPLPVGAIHDFRGMALVGFGRFLRMYDIGQKKLLAKCENKNFPVSIVNIQSTGQRIIVSDSQESVHFLRYRKGDNQLVVFADDTTPRYVTCVCVLDYHTVAVADKFGNLAVVRLPERVNEDVQDDPTVSKSVWDRGWLNGASQKVELVSNFFIGDTITSLQKTSLMPGANEALVYTTIGGAIGCLVSFMSKDEVDFFTNLEMHVRSEYPPLCGRDHLAYRSYYAPCKSVIDGDICEQFSLMDTQKQKDVAEELGKTVSEISKKLEDIRTRYAF | not soluble
MVSEEEEEEDGDAEETQDSEDDEEDEMEEDDDDSDYPEEMEDDDDDASYCTESSFRSHSTYSSTPGRRKPRVHRPRSPILEEKDIPPLEFPKSSEDLMVPNEHIMNVIAIYEVLRNFGTVLRLSPFRFEDFCAALVSQEQCTLMAEMHVVLLKAVLREEDTSNTTFGPADLKDSVNSTLYFIDGMTWPEVLRVYCESDKEYHHVLPYQEAEDYPYGPVENKIKVLQFLVDQFLTTNIAREELMSEGVIQYDDHCRVCHKLGDLLCCETCSAVYHLECVKPPLEEVPEDEWQCEVCVAHKVPGVTDCVAEIQKNKPYIRHEPIGYDRSRRKYWFLNRRLIIEEDTENENEKKIWYYSTKVQLAELIDCLDKDYWEAELCKILEEMREEIHRHMDITEDLTNKARGSNKSFLAAANEEILESIRAKKGDIDNVKSPEETEKDKNETENDSKDAEKNREEFEDQSLEKDSDDKTPDDDPEQGKSEEPTEVGDKGNSVSANLGDNTTNATSEETSPSEGRSPVGCLSETPDSSNMAEKKVASELPQDVPVGDFKSEKSNGELSESPGAGKGASGSTRIITRLRNPDSKLSQLKSQQVAAAAHEANKLFKEGKEVLVVNSQGEISRLSTKKEVIMKGNINNYFKLGQEGKYRVYHNQYSTNSFALNKHQHREDHDKRRHLAHKFCLTPAGEFKWNGSVHGSKVLTISTLRLTITQLENNIPSSFLHPNWASHRANWIKAVQMCSKPREFALALAILECAVKPVVMLPIWRESLGHTRLHRMTSIEREEKEKVKKKKKK | soluble
MSLSIADNLKQVLAELPQGVRLVAVSKFHPNEAIEEAYQAGQRIFGESKVQEMTAKYETLPKDIEWHFIGHLQTNKIKYMIPYVEMIHGIDTYKLLAEVNKQAAKAGRIVNCLIQIHVAQEETKFGFSPEECKDMLHAGEWKELSHIRICGLMGMASNTDDVEQINREFCLLNRLFQEIKANWFADSDTFRELSMGMSHDYHEAIAAGSTLVRVGSKIFGERNYNTEGHHHHHH | soluble
MPAQIEDYALLGNCRSAALVSRDGALDWLCLPRFDAPAVFAALLGNEENGRWRLAPCDPVTHSSRQYLGDTLVLETTWVTASGRARVLDFMPLGEVNSVVRIVEGLSGETHFEMDLVMRFDYGLEHHHHHH | not soluble
MRGSHHHHHHSNFAIILAAGKGTRMKSDLPKVLHKVAGISMLEHVFRSVGAIQPEKTVTVVGHKAELVEEVLAGQTEFVTQSEQLGTGHAVMMTEPILEGLSGHTLVIAGDTPLITGESLKNLIDFHINHKNVATILTAETDNPFGYGRIVRNDNAEVLRIVEQKDATDFEKQIKEINTGTYVFDNERLFEALKNINTNNAQGEYYITDVIGIFRETGEKVGAYTLKDFDESLGVNDRVALATAESVMRRRINHKHMVNGVSFVNPEATYIDIDVEIAPEVQIEANVILKGQTKIGAETVLTNGTYVVDSTIGAGAVITNSMIEESSVADGVTVGPYAHIRPNSSLGAQVHIGNFVEVKGSSIGENTKAGHLTYIGNCEVGSNVNFGAGTITVNYDGKNKYKTVIGDNVFVGSNSTIIAPVELGDNSLVGAGSTITKDVPADAIAIGRGRQINKDEYATRLPHHPKNQ | soluble
MTRQSQDGDATSTPAERAAAARAAAAEAARIAAEAAAAAEEAEKEARDAEAAENRAPAGVAASSGAAADIAAGYSSEGAALELGTVVLDGVVDSAARVRIPLATVNRHGLVAGATGTGKTKTLQGIAEQLSAAGVPVVMADMKGDLSGLSQPGEAGDKITTRASETGDGEWRPAASPVEFLSLGTEGLGIPVRATITAFGPILLAKVLGLNETQESTLGLIFHWADVQGLALLDLLDLRSVIAHLTSDEGKADLKGIGGVSPATAGVILRALVNLEADGGDTFFGEPELETEDLLRVIDGKGVITLFELGAQAARPALFTTFLMWVLADLFQTLPEEGDLDKPKLVFIFDEAHLLFADASKAFLQQVEQTVKLIRSKGVGVFFCTQLPTDVPNGVLSQLGARIQHALRAFTPDDQKALTKTVRTYPTTENYDLEKALTSLGIGEAIVTVLSERGAPTPVAWTRIRPPRSLMDTIGTDAITAAASSSPLSAKYGQTVDRESAYEKLTAKVAGAPAAEPGLDLPPLPDLPTPPPAQPEGPNMAEQILGNSAVKSFLRSAASAAGREISRSIFGTGKRRRR | not soluble
MEMDLPVSAIGFEGFEKRLEISFVEPGLFADPNGKGLRSLSKAQLDEILGPAECTIVDNLSNDYVDSYVLSE | soluble
GSSPQREPQRVSHEQFRAALQLVVDPGDPRSYLDNFIKIGEGSTGIVCIATVRSSGKLVAVKKMDLRKQQRRELLFNEVVIMRDYQHENVVEMYNSYLVGDELWVVMEFLEGGALTDIVTHTRMNEEQIAAVCLAVLQALSVLHAQGVIHRDIKSDSILLTHDGRVKLSDFGFCAQVSKEVPRRKSLVGTPYWMAPELISRLPYGPEVDIWSLGIMVIEMVDGEPPYFNEPPLKAMKMIRDNLPPRLKNLHKVSPSLKGFLDRLLVRDPAQRATAAELLKHPFLAKAGPPASIVPLMRQNRTR | soluble

— the DeepSol protein solubility set
